Data taken from the RNAGym collection of RNA variant scans (doi:10.1073/pnas.2313332121).

B1: TPR t1 (parent)
chain: GACCAAUCUGCCCUCAGAGCUCGAGAACAUCUUCGGAUGCAGAGGAGGCAGGCUUCGGUGGCGCGAUAGCGCCAACGUCCUCAACCUCCAAUGCAUCCCACCACAUGAUGAUGCCUGAAGAGCCUUGGUUUUUUG

Variants of: B1
Assay: polymerase ribozyme fitness, log enrichment relative to wild type (log ratio); higher = more active; in vitro selection for triplet polymerase activity
Summary of the method: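 Mutant libraries of both subunits of a heterodimeric triplet polymerase ribozyme were PCR-built, transcribed, and selected once in triplicate, with frozen incubation at −7 °C and capture of gel-excised extended constructs on streptavidin beads before RT-PCR. Illumina sequencing of input and output libraries was filtered to genotypes with ≥10 input reads and ≥1 read per output. Fitness is the logarithm of genotype enrichment over wild-type enrichment, using inverse-variance-weighted replicate averages. The logarithm is base 2.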

Variant | polymerase ribozyme fitness (log ratio)
U87A C88A U96C | -1.02
U81C C114A | -2.34
C82G U109C | -5.03
C82G G117C | -3.58
C85G U130G | -2.71
A84G C88U U116G C124A | -0.458
A84U U130C | 0.517
U87A C114A | -2.58
U81G C124A G128C U130G | -2.26
U81C U106A | 0.0236
U81G C94G G117U | -6.8
A83C G110U G117U | -5.17
C85U A91C A95G | -2.23
U81G A95U | -6.29
C85U C88U | -0.176
A84U C115A | -0.457
C82U C88G C124U | 0.172
U81G U130A | -3.23
A83C U92A C114A G128C | -6.64
U81A C102A | -3.36
A83U C115U C123G G135U | -1.98

Variant | polymerase ribozyme fitness (log ratio)
U81G G93A U106A C123U | -3.83
C82G C97A U112C C115G U133G | -6.38
C86G G120A | -0.356
A84U G117C C124G | -1.4
U87A G113A | -1.76
C82G C123G U126C G128C | -2.13
C86U G120A U130C G135U | -0.0631
C86U G113A G127C | -1.64
U87A G120U | 0.227
U81C C97U C114A | -3.09
U81G G120A | -3.83
A84U U106G A118G | -1.83
A83C C114A C123G C124G | -0.19
C82G C88U A103C G117C | -5.02
C82G A118U | 0.179
C85A A95U A100U | -3.28
C86U A90U | -1.08
C86U C97U | -0.517
C86G G93C U132C | -2.42
A83G C97U C115A G135C | -1.7
C86G C102G C115A U133A | -5.49

Variant | polymerase ribozyme fitness (log ratio)
C82A G93C A111C | -0.977
A84U | -0.405
A84G | -0.482
A84C | -0.112
C85U U87A C88A | -2.23
C86G C101A | -1.32
A84G C88U | -0.134
A84U G128A | -1.72
A84U G127A | -0.952
A83U A91C G128A | -2.84
C86U G93U U106C C124U U126A | -2.34
C86G A100U G128C | -3.41
C86G A100U | -0.874
A84C C114G G127A | -4.73
C85U C99U | -4.89
C82U A91U A100U | -3.25
A84U U106A | -0.185
C85U G135U | -1.91
C82A C97G | -5.53
C85A C104U | -1.07
A83U U125A | -0.797

Variant | polymerase ribozyme fitness (log ratio)
A83C G93C | -0.701
C82G G110U | -3.25
C86G U112G | 0.00839
C85U U112A G122U U126G | -4.47
C85U G120A | -0.267
C86U U112A | 0.825
C86A G127C | -1.91
C85U C86G | -1.13
C86U U87A C101A U129G | -3.91
A83C C101G U109A G120A | -7.06
A84C U116C | 0.658
C85A G110A G127A | -3.71
A83G G93A G120U | -1.68
A84U C115A U125G | -0.872
U87A U129A | -0.873
C85A G113C G122C U129C | -4.98
C82A C123U | 0.707
A83C G107U G113A | -3.74
C85U G113A | -2.02
C85A C102U A121U C124U | -1.07
A83U C98U U130C | -0.673
